Test results published in US6852686B2, “Methods for ameliorating icthyosiform skin diseases” (The United States of America as represented by the …, priority 1999, dated 2005).

Assays:
TGase 1 = molecular target: T1, TGase 1 (Homo sapiens, UniProt P22735); test: Free Ca++ dependence of 14C-putrescine incorporation by TGase 1; type: biochemical
T1 construct: Recombinant full-length human TGase 1 and TGase 3 enzymes were expressed in Sf9 cells by the BaculoGold system; made in house; host or cells: Sf9 insect cells, BaculoGold baculovirus system, pVL1392 vector
T1 sequence (P22735 1-817): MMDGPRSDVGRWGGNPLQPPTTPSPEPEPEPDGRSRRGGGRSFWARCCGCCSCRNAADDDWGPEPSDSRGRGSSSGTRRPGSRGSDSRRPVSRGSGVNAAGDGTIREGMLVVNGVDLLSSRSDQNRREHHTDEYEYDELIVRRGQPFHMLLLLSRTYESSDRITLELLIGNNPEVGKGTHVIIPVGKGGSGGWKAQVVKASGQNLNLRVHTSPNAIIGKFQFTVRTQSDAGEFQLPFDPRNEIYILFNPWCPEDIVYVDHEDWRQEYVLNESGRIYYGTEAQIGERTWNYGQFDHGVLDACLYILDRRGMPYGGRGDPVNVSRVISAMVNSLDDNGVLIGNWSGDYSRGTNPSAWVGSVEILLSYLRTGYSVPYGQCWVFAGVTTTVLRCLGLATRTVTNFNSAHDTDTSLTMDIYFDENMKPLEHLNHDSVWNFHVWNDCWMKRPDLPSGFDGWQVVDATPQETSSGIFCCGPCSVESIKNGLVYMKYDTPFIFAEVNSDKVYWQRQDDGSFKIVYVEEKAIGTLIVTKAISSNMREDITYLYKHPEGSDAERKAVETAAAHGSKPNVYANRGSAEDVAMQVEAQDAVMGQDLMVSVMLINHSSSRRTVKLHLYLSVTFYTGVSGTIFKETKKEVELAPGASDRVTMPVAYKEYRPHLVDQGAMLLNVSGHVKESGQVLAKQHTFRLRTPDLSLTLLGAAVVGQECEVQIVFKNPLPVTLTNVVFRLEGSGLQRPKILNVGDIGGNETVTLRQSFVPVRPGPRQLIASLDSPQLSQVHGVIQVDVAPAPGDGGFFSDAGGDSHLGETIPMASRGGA
Description: Activity values are given as percent of the values measured at 1 mM Ca^++. […] Points represent the means±s.d. of three independent measurements.
The optimal Ca^++ ion concentration required for the TGase 1 reaction has not been measured for any substrate. Standard in vitro solution assays contain 1-5 mM Ca^++. (Folk, J. E. and J. S. Finlayson, Adv. Protein Chem., 31: 1-133 (1977); Folk, J. E., Adv. Enzymol. Related Areas Mol. Biol., 54: 1-56 (1983); and Lorand, L. S. M. Conrad, Mol. Cell Biochem., 58: 9-35 (1984)). […] (FIG. 6, open symbols). […] (FIG. 2).
(§1) The Ca^++ concentrations in the μM range were set by buffering free Ca^++ with chelators The desired Ca^++/chelator ratios were calculated by the WinMaxC 1.7 computer program (Bers, et al., Methods in Cell Biology Vol 40: A Practical Guide to the Study of Ca^2+ in Living Cells, Nuccitelli, R., ed., pp. 1-327 (1994), herein expressly incorporated by reference in its entirety), and were made by adding the required amounts of 1 M CaCl2 to 0.2 M stock solutions of the following chelators at pH 8.0. Final chelator concentrations in the samples were 10 mM in all cases. Sodium citrate was the chelator for the 20-500 μM Ca^++ range; sodium nitrilotriacetate for the 1-20 μM Ca^++ range; and sodium 1,2-bis(aminophenoxy)ethane-N,N,N′,N′ tetraacetate for the 0.1-1 μM Ca^++ range.

[1] = system: synthetic lipid vesicles (SLV); test: Membrane association (binding) to synthetic lipid vesicles, SLV pelleted by ultracentrifugation
Description: Mixtures of dipalmitoyl-phosphatidylcholine, cholesterol, dipalmitoyl-phosphatidylserine (PS) and other lipids where indicated (all from Sigma, St. Louis, Mo.) were made in chloroform-methanol (95:5). In all cases, the mixtures contained 30% cholesterol. When the amounts of PS or other individual components were varied, phosphatidylcholine was added to make the mixture to 100%. Mixtures were made in 0.5 ml and contained 10 μmol of total lipids. The solvent was flushed away under a stream of N2, dried further under high vacuum for 4 h and then resuspended by vortexing in 0.5 ml of a buffer containing 50 mM Tris-Cl (pH 8.0), 100 mM NaCl, 3 mM NaN3, 5 mM DTT, and 200 mM sucrose. The mixture was sonicated on ice five times each for 1 min using a Branson 250 sonifier with micro probe tip, and allowed to stand at 23° C. to facilitate assembly of SLV. After 1 h the SLV were diluted with 0.5 ml of the above buffer without sucrose, and 200 μl aliquots were centrifuged at 100,000× g for 30 min in a Beckman Airfuge using the A-10 rotor. The top 175 μl was removed, and the pellet resuspended in another 150 μl of sucrose-free buffer. The final stock concentration was 11 μmol/ml.
In all cases, the buffer contained 50 mM Tris-HCl (pH 8.0), 100 mM NaCl, 1 mM DTT, 3 mM NaN3, and other additives where noted. Some mixtures also contained 1 mM CaCl2 or 2 mM EDTA. After mixing, the samples were centrifuged for 45 min at 100,000× g, and the protein content from 50 μl of supernatant was determined by amino acid analysis after acid hydrolysis. Data were usually not corrected for loss of SLV lipids, as in control experiments, cumulated losses were <4% as assayed by ^14C-phosphatidylcholine tracer, and thus neglected from the calculations.
as §1

B1: TGase 1: recombinant full-length human transglutaminase 1 expressed in Sf9 cells by baculovirus, solubilized or bound to SLV (protein)
chain: MMDGPRSDVGRWGGNPLQPPTTPSPEPEPEPDGRSRRGGGRSFWARCCGCCSCRNAADDDWGPEPSDSRGRGSSSGTRRPGSRGSDSRRPVSRGSGVNAAGDGTIREGMLVVNGVDLLSSRSDQNRREHHTDEYEYDELIVRRGQPFHMLLLLSRTYESSDRITLELLIGNNPEVGKGTHVIIPVGKGGSGGWKAQVVKASGQNLNLRVHTSPNAIIGKFQFTVRTQSDAGEFQLPFDPRNEIYILFNPWCPEDIVYVDHEDWRQEYVLNESGRIYYGTEAQIGERTWNYGQFDHGVLDACLYILDRRGMPYGGRGDPVNVSRVISAMVNSLDDNGVLIGNWSGDYSRGTNPSAWVGSVEILLSYLRTGYSVPYGQCWVFAGVTTTVLRCLGLATRTVTNFNSAHDTDTSLTMDIYFDENMKPLEHLNHDSVWNFHVWNDCWMKRPDLPSGFDGWQVVDATPQETSSGIFCCGPCSVESIKNGLVYMKYDTPFIFAEVNSDKVYWQRQDDGSFKIVYVEEKAIGTLIVTKAISSNMREDITYLYKHPEGSDAERKAVETAAAHGSKPNVYANRGSAEDVAMQVEAQDAVMGQDLMVSVMLINHSSSRRTVKLHLYLSVTFYTGVSGTIFKETKKEVELAPGASDRVTMPVAYKEYRPHLVDQGAMLLNVSGHVKESGQVLAKQHTFRLRTPDLSLTLLGAAVVGQECEVQIVFKNPLPVTLTNVVFRLEGSGLQRPKILNVGDIGGNETVTLRQSFVPVRPGPRQLIASLDSPQLSQVHGVIQVDVAPAPGDGGFFSDAGGDSHLGETIPMASRGGA
For B1, which “Ca++ concentration above which enzyme becomes active in cross-linking” value (TGase 1; TGase 1 bound to SLV) is on record?
The value was “above 10 μM”.

And the “lowering of Ca++ concentration required for cross-linking of involucrin versus soluble enzyme and substrate” value (TGase 1; membrane-bound versus soluble TGase 1)?
Its value is 10 fold.

And the “Ca++ concentration above which enzyme becomes active in cross-linking” value (TGase 1; solution assays)?
The value was “above 100 μM”.

And the “saturating amount on SLV” value ([1]; SLV composed of 15% PS)?
The value was “approximately 0.9 nmol of TGase 1/μmol of lipid”.

And the “binding to SLVs” value ([1]; TGase 1 purified by the NH2OH—HCl method (S-acyl adducts hydrolysed))?
Its value is “unable to bind to SLVs”.

And the “binding to SLVs” value ([1]; TGase 1 purified from Triton X-100 extracts (lipid adducts retained))?
Its value is “spontaneously associates with SLVs”.
